Measurements: patent publication US12527821B2, “Compositions and methods related to tumor cell killers and vaccines” (THE BRIGHAM AND WOMEN'S HOSPITAL, INC., priority 2018, dated 2026)

B1: TNF-related apoptosis-inducing ligand (protein, listed as Homo sapiens)
chain: MAMMEVQGGPSLGQTCVLIVIFTVLLQSLCVAVTYVYFTNELKQMQDKYSKSGIACFLKEDDSYWDPNDEESMNSPCWQVKWQLRQLVRKMILRTSEETISTVQEKQQNISPLVRERGPQRVAAHITGTRGRSNTLSSPNSKNEKALGRKINSWESSRSGHSFLSNLHLRNGELVIHEKGFYYIYSQTYFRFQEEIKENTKNDKQMVQYIYKYTSYPDPILLMKSARNSCWSKDAEYGLYSIYQGGIFELKENDRIFVSVTNEHLIDMDHEASFFGAFLVG
notes: death receptor (DR4/5) ligand used to treat cancer cell lines

What was measured:
[1] = test system: rGBMi2-TK cells; test: GCV-induced clearance of HSV-TK engineered rGBM in vitro (cell viability); type: cell-based, human; details: in comparison to controls
Protocol: Cell viability and caspase assays: Tumor cells were plated in 96-well plates and treated with different doses of S-TRAIL for 24 hours and different doses of GCV for up to 96 hours. Cell viability was measured using an ATP-dependent luminescent reagent (CellTiter Glo, Promega) for non-Fluc expressing cells, or with luciferin or coelenterazine for Fluc- and Rluc-expressing cells, respectively. Caspase activity was determined using a DEVD-aminoluciferin assay (Caspase-3/7 Glo, Promega) according to the manufacturer's instructions. Experiments were performed in triplicate.

[2] = test system: CT2a-GMCSF-mIFNaR1KO engineered with LV-IFNβ/zeo-HSV/TK; test: Cell viability after GCV treatment; type: cell-based, mouse
Source text: FIG. 2A details the concept to test if CT2a-IFNaR1-KO can be engineered with LV-IFNβ/zeo-HSV/TK.

[3] = test system: rGBMi2-ST-TK; test: 18F-FHBG PET imaging of GCV-induced cell clearance; type: in vivo, mice; details: after 10 days of daily GCV treatment
Protocol: PET imaging: Mice implanted intracranially with rGBMi2-TK-GF1 were fasted for 4 hours before imaging, anesthetized with 2% isoflurane and 100% oxygen, and injected with 500 μCi of 18F-FHBG via the tail vein. Two hours later, a static dataset was acquired for 60 minutes in 1 bed position (FOV 4.2 cm) using an energy window of 250-700 keV for each mouse. Images were reconstructed using a 2D OSEM algorithm with 2 iterations and 16 subsets. For measuring the mean and maximum standardized uptake values (SUVmean and SUVmax) and metabolic tumor volume (MTV), three-dimensional (3D) regions of interest were drawn over the mouse brain, and uptake values were measured using the explore Vista software (GE Healthcare). The maximum intensity projection images were generated using ImageJ. After the baseline PET scan at day 0, mice were treated daily with GCV (10 mg/kg) and imaged again by PET at day 10 after GCV treatment.

[4] = test system: rGBMnDR4/5-ST-TK; test: GCV titration of DR4/5 knockout line with HSV-TK in vitro; type: cell-based, human; details: as opposed to non-TK control lines
Protocol: (§1) Thus, should tumors acquire a DRL-resistant phenotype during adjuvant clinical therapy and tumor recurrence, TK-induced bystander effect of therapeutic self-cells might still provide robust treatment efficacy.
(§2) Lentiviral transductions and engineering of stable cell lines: Lentiviral packaging was performed by transfection of 293T cells as previously described (73), and cells were transduced with lentiviral vectors at M.O.I of 2 in medium containing protamine sulfate (2 μg/ml). For bioluminescence imaging, cancer cells were transduced with LV-Pico2-Fluc-mCherry, LV-Pico2-Rluc-mCherry, or LV-Pico2-Fluc-GFP and selected by FACS using a BD FACSAriaTM Fusion cell sorter or puromycin selection (1 μg/ml) in culture. GFP or mCherry expression was visualized by fluorescence microscopy. […] Cell viability was measured using an ATP-dependent luminescent reagent (CellTiter Glo, Promega) for non-Fluc expressing cells, or with luciferin or coelenterazine for Fluc- and Rluc-expressing cells, respectively. Caspase activity was determined using a DEVD-aminoluciferin assay (Caspase-3/7 Glo, Promega) according to the manufacturer's instructions. Experiments were performed in triplicate. […]

[5] = test system: rGBMiDR4/5-ST-TK; test: as above; type: cell-based, human; details: as opposed to non-TK control lines
Protocol: as §1, §2

[6] = test system: rGBMnDR4/5-ST-TK-GF1; test: Intracranial implantation of sECM-encapsulated rGBMnDR4/5-ST-TK-GF1 in SCID mice, growth and GCV clearance (BLI); type: in vivo
Source text: (1) Nodular recurrent GBM resection model: Local retention of therapeutic cells can be achieved by encapsulation of therapeutic cells into biodegradable synthetic extracellular matrix (sECM) before implantation into the resection cavity (16).

[7] = test system: 293 Ts engineered with LV-IFNβ/zeo-HSV/TK; test: Cell viability after GCV treatment; type: cell-based
[8] = test system: GBM8 (sGBMi); test: TRAIL sensitivity screen/titration (cell viability); type: cell-based, human; details: invasive GBM cell line
Source text: (§3) To investigate the therapeutic efficacy of receptor-targeted molecules, the Inventors tested a panel of different cancer cell lines for their susceptibility to treatment with cell surface receptor ligands/antagonists targeting CD36 (thrombospondin-1, TSP), epidermal growth factor receptor (EGFR) (EGFR-blocking nanobody, Nb), heterodimeric interleukin 20 receptor (IL20R) comprised of subunits α and β (interleukin 24, IL24), and DRs (TRAIL) (FIG. 6 C). A nodular (n) and an invasive (i) GBM cell line (Gli36Δ-EGFR and GBM8, respectively) were screened and found to be DR ligand (DRL)-sensitive(s) (herein referred to as sGBMn and sGBMi). The following non-GBM cancer lines were also identified as DRL-sensitive: PC3 (sPCm), Jurkat (sTCL), HCT116 (sCC), and MDA231-BrM2a (sBCm). […] In addition to the above DRL-sensitive(s) cell lines, three DRL-resistant (r) GBM cell lines were identified (GBM23, GBM64, GBM46, herein referred to as rGBMi1, rGBMi2, rGBMi3) (FIG. 6D). Based on these findings, DR4 and DR5 were chosen as the most suitable candidates to further investigate the therapeutic potential of receptor self-targeted therapies.
(§4) Lentiviral transductions and engineering of stable cell lines: Lentiviral packaging was performed by transfection of 293T cells as previously described (73), and cells were transduced with lentiviral vectors at M.O.I of 2 in medium containing protamine sulfate (2 μg/ml). For bioluminescence imaging, cancer cells were transduced with LV-Pico2-Fluc-mCherry, LV-Pico2-Rluc-mCherry, or LV-Pico2-Fluc-GFP and selected by FACS using a BD FACSAriaTM Fusion cell sorter or puromycin selection (1 μg/ml) in culture. GFP or mCherry expression was visualized by fluorescence microscopy. […] Cell viability was measured using an ATP-dependent luminescent reagent (CellTiter Glo, Promega) for non-Fluc expressing cells, or with luciferin or coelenterazine for Fluc- and Rluc-expressing cells, respectively. Caspase activity was determined using a DEVD-aminoluciferin assay (Caspase-3/7 Glo, Promega) according to the manufacturer's instructions. Experiments were performed in triplicate. For treatments with conditioned medium, plasmid vectors coding for secretable expression of CD36-targeting ligand 3TSR (a functional thrombospondin-1, TSP-1 analog) (09), EGFR-blocking ligand NB (12), IL-20Rα/β-targeting ligand IL-24 (69), and DR ligand S-TRAIL (69) were transfected into 293T cells. Medium was changed the next day, collected 40 hours after transfection, and frozen at −80° C. until further use.

[9] = test system: GBM23 (rGBMi1); test: as above; type: cell-based, human
Source text: as §3, §4

[10] = test system: Gli36Δ-EGFR (sGBMn); test: as above; type: cell-based, human; details: nodular GBM cell line
Source text: as §3, §4

[11] = test system: GBM64 (rGBMi2); test: as above; type: cell-based, human
Source text: as §3, §4

[12] = test system: MDA231-BrM2a (sBCm); test: as above; type: cell-based, human
Source text: as §3, §4

[13] = test system: PC3 (sPCm); test: as above; type: cell-based, human
Source text: as §3, §4

[14] = test system: HCT116 (sCC); test: as above; type: cell-based, human
Source text: as §3, §4

[15] = test system: GBM46 (rGBMi3); test: as above; type: cell-based, human
Source text: as §3, §4

[16] = test system: Jurkat (sTCL); test: as above; type: cell-based, human
Source text: as §3, §4

[17] = test system: panel of different cancer cell lines; test: Screen of receptor-targeted ligands/antagonists on a panel of cancer cell lines; type: cell-based, human; details: 72 hours after treatment; versus TSP, Nb, IL24
Source text: To investigate the therapeutic efficacy of receptor-targeted molecules, the Inventors tested a panel of different cancer cell lines for their susceptibility to treatment with cell surface receptor ligands/antagonists targeting CD36 (thrombospondin-1, TSP), epidermal growth factor receptor (EGFR) (EGFR-blocking nanobody, Nb), heterodimeric interleukin 20 receptor (IL20R) comprised of subunits α and β (interleukin 24, IL24), and DRs (TRAIL) (FIG. 6 C). A nodular (n) and an invasive (i) GBM cell line (Gli36Δ-EGFR and GBM8, respectively) were screened and found to be DR ligand (DRL)-sensitive(s) (herein referred to as sGBMn and sGBMi). […]
as §2, with “For bioluminescence imaging, cancer cells were transduced with LV-Pico2-Fluc-mCherry, LV-Pico2-Rluc-mCherry, or LV-Pico2-Fluc-GFP and selected by FACS using a BD FACSAriaTM Fusion cell sorter or puromycin selection (1 μg/ml) in culture.” left out, “instructions.” for “instructions. Experiments were performed in triplicate.”

Molecule | elimination of rGBMi2-TK cells [1] | cell-viability after GCV-treatment [2] | tumor-specific PET signal intracranially [3] | cell elimination by GCV [4] | cell elimination by GCV [5] | time to drop of BLI signal back to baseline ([6]; after initiation of GCV therapy) | GCV-induced (HSV-TK mediated) cell clearance ([6]; mouse, in vivo) | cell-viability after GCV-treatment [7] | susceptibility to DR ligand (DRL) [8] | susceptibility to DR ligand (DRL) [9] | susceptibility to DR ligand (DRL) [10] | susceptibility to DR ligand (DRL) [11] | susceptibility to DR ligand (DRL) [12] | susceptibility to DR ligand (DRL) [13] | susceptibility to DR ligand (DRL) [14] | susceptibility to DR ligand (DRL) [15] | susceptibility to DR ligand (DRL) [16] | efficacy in comparison to the other tested ligands [17]
Nc1nc2c(ncn2COC(CO)CO)c(=O)[nH]1 [GCV, Ganciclovir] | dose- and time-dependent elimination | dose-dependent reduction of cell-viability | no longer visible | dose-dependent cell elimination | dose-dependent cell elimination | ≤ 9 days | successful cell clearance | dose-dependent reduction of cell-viability |  |  |  |  |  |  |  |  |  | 
B1 |  |  |  |  |  |  |  |  | sensitive | DRL-resistant | sensitive | DRL-resistant | DRL-sensitive | DRL-sensitive | DRL-sensitive | DRL-resistant | DRL-sensitive | most effective agent
